Test system: ArdK (intact) (Escherichia coli A56-1S (plasmid pA56-1S))
Assay: BLI
Details: EMSA: 20 mM Tris pH 7.5, 100 mM KCl, 2 mM DTT, 10 mM EDTA, 50 mg/L poly(dI-dC), 20 C, 20 min, 3 fmol probe, 30 pmol protein; BLI: 1x kinetics buffer (Pall …)

Substance: 107 bp probe upstream of blaIMP-6
- Kd: 29.3 nM
